Positions count from the first letter of the chain named.

The target of assay [1] is T1, prefusion stabilized SARS-CoV-2 S ectodomain (SARS-CoV-2, UniProt P0DTC2 14-1208).
T1 construct: also called SARS-CoV-2 spike ectodomain; ectodomain of the spike (S) homotrimer of SARS-CoV-2
The experiment in a line: ELISA, coated S ectodomain [cont'd].

Assay [2] has as its target T1, prefusion stabilized SARS-CoV-2 S …. The experiment in a line: ELISA, coated S ectodomain. A general note: An ELISA detects its analyte on a solid surface through an enzyme-linked reagent.
Assay [3] shares this target. The experiment in a line: ELISA, coated S ectodomain [cont'd]. This is another data set of the same source.
Assay [4] has the same target. The experiment in a line: ELISA, coated S ectodomain [cont'd]. This is another data set of the same source.

B1: HbnC2t1p2_D9 (antibody, V domains shown)
VH: QVQLVESGGGVVQPGRSLRLSCAASGFTFSSYGMHWVRQAPGKGLEWVAVIWYDGRNKYYVDSVKGRFTISRDNSKNTLYLQISSLRAEDTAVYYCARAARRPVVTDTMAYYMDVWGKGTTVTVSS
VL: EIVLTQSPATLSLSPGERATLSCRASLSLSSYLAWYQQKPGQAPRLLIYDASNRATGIPARFSGSGSGTDFTLTISSLEPEDFAVYYCQQRSNWPPTWTFGQGTKAEIKR
B1 gave an EC50 in assay [1] of 0.04 µg/mL.

B2: HbnC4t1p1_D5 (antibody, V domains shown)
VH: EVQLVESGGGLVQPGRSLRLSCAASGFTFDDYAMHWVRQAPGKGLEWVSGISWNSGSIGYADSVKGRFTISRDNAKNSLYLQMNSLRAEDTGLYYCAKDINYDSGGYHKNYFDYWGQGTLVTVSS
VL: DIQMTQSPSSLSASVGDRATITCRASQSISSYLNWYQEKPGKAPKLLIYAASSLQSGVPSRFSGSGSGTDFTLTISSLQPEDFATYYCQQSYSNPLTFGGGTKVEIK
Turning to B2, in assay [1], a half-maximal response (EC50) required 0.25 µg/mL.

B3: HbnC3t1p1_F4 (antibody, V domains shown)
VH: QVQLVESGGGVVQPGRSLRLSCAATGFTFRRYGMHWVRQAPGKGLEWVAGILFDGSNKYYVDSVKGRFTISRDSSRNTLYLQLNSLRREDTAVYYCAKGGDYEWELLESWGQGTLVTVSS
VL: DIQMTQSPSTVSASVGDRVTITCRASQSIDNWLAWYQEKPGKAPKVLIYKASSLESGVPSRFSGRGSGTEFTLTISSLQPGDFATYYCQHYHSFPLTFGGGTKVDIK
In assay [1], B3 returned an EC50 of 0.04 µg/mL.

B4: HbnC3t1p1_G4 (antibody, V domains shown)
VH: EVQLVESGGGLVQPGGSLRLSCAASGFTVSSNYMSWVRQAPGKGLEWVSVIYSGGSTFYADSVKGRFTISRDNSKNTLYLQMNSLRAEDTAVYYCARDFGDFFFDYWGQGTLVTVSS
VL: EIVLTQSPGTLSLSPGERATLSCRASQSVSSYLAWYQQKPGQAPRLLIYGVSSRATGIPDRFSGSGSGTDFTLTISRLEPEDFAVYYCQQYGSSPRTFGQGTKVEIK
For the molecule B4, the concentration for a half-maximal effect (EC50) in assay [1] came to 0.02 µg/mL.

B5: HbnC3t1p2_B10 (antibody, V domains shown)
VH: B4 VH with T28I, F99Y, F102Y
VL: B4 VL with Y49S, V51A, T56A, S76N, V104L
With B5, the concentration giving a half-maximal response (EC50) in assay [1] was determined as 0.22 µg/mL.

B6: CnC2t1p1_D6 (antibody, V domains shown)
VH: EVQLVESGGGLVQPGRSLRLSCTASGFTFGDYAMSWFRQAPGKGLEWVGFIRSKAYGGTTEYAASVKGRFTISRDDSKSIAYLQMNSLKTEDTAVYYCTRVRRLWFGSYYYGMDVWGQGTTVTVSS
VL: not shown
As for B6, the half-maximal effective concentration (EC50) in assay [2] is 0.03 µg/mL.

B7: CnC2t1p1_E12 (antibody, V domains shown)
VH: B6 VH with A81V
VL: not shown
Turning to B7, the concentration for a half-maximal effect (EC50) in assay [2] amounted to 0.03 µg/mL.

B8: CnC2t1p1_B10 (antibody, V domains shown)
VH: QVQLVQSGAEVKKPGSSVKVSCKASGGTFSSYAISWVRQAPGQGLEWMGGIIPIFGTANYAQKFQGRVTITADKSTSTAYMELSSLRSEDTAVYYCARVSGYDSSGYWGDYWGQGTLVTVSS
VL: EIVLTQSPATLSLSPGERATLSCRASQSVSSYLAWYQQKPGQAPRLLIYDASNRATGIPARFSGSGSGTDFTLTISSLEPEDFAVYYCQQRSNWPPALTFGGGTKVEIK
Take B8: the EC50 in assay [2] amounted to 0.32 µg/mL.

B9: MnC4t1p1_A11 (antibody, V domains shown)
VH: EVQLVESGGGLVQPGGSLRLSCAASGFTFSSYSMNWVRQAPGKGLEWVSYISSSSNTRYYTDSVMGRFTISRDNAKNSLFLQMNSLRAEDTAVYYCASSKGFCSGGSCSDYWGQGTLVTVSS
VL: EIVLTQSPGTLSLSPGERATLSCRASQSVSSSYLAWYQQKPGQAPRLLIYGVSSRATGIPDRFSGSGSGTDFTLTISRLEPEDFVVYYCHQYGSSPWTFGQGTKVEIK
As to B9, the concentration giving a half-maximal response (EC50) in assay [3] amounted to 0.05 µg/mL.

B10: MnC4t2p1_B3 (antibody, V domains shown)
VH: EVQLVESGGHLVQPGRSLRLSCAASGFTFDDYAMHWVRQVPGKGLEWVSGISWNGGILDYADSVKGRFTISRDNAKNSLYLHMRSLRTDDTALYYCAKDLRRQDYYADWYFDLWGRGTLVTVSS
VL: DIQMIQSPSSVSASVGDRVTITCRASQGISSWLAWYQQKPGKAPKLLIYAASTLLSAVPSRFSGSGSGTDFTLTISSLQPEDFATYYCQQGNSFPFTFGPGTIVDV
As to B10, the midpoint of the response in assay [3], the EC50, lay at 0.06 µg/mL.

B11: MnC4t2p1_E6 (antibody, V domains shown)
VH: B10 VH with D59G, H82Q
VL: B10 VL with I5T, I103K
The molecule B11 returned an EC50 in assay [4] of 0.03 µg/mL.

B12: CnC2t1p1_B4 (antibody, V domains shown)
VH: QVQLVQSGAEVKKPGASVKVSCKASGYTFTSYGISWVRQAPGQGLEWMGWISAYNGNTNYAQKLQGRVTMTTDTSTSTAYMELRSLRSDDTAVYYCARDGELLGWFDPWGQGTLVTVSS
VL: QSALTQPASVSGSPGQSITISCTGTSSDVGSYNLVSWYQQHPGKAPKLMIYEGSKRPSGVSNRFSGSKSGNTASLTISGLQAEDEADYYCCSYAGSSTWVFGGGTKLTVL
In turn, B12 came in with an EC50 in assay [2] of 0.03 µg/mL.

B13: CnC2t1p1_E8 (antibody, V domains shown)
VH: QVQLVQSGAEVKNPGASVKVSCKASGYIFTNYYIHWVRQAPGQGLEWVGWIHSLSGGTSYAQKFQGRVTLTRDASIRTAYMELSRLGSDDTALYYCARASVSTITDFDYWGQGTLVAVSS
VL: B12 VL with S27G, M49V, G53A, S54T, S65F, G66A, S96V, S97R, W99V
B13 yielded a concentration giving a half-maximal response (EC50) in assay [2] of 0.13 µg/mL.

B14: CnC2t1p1_G6 (antibody, V domains shown)
VH: B13 VH with N13K, S75P, R85G, L93V, S102A
VL: B12 VL with S27G, V29I, H41Y, M49I, G53A, S65F, G66A, S96V, S97R, W99V
In the case of B14, the response in assay [2] was half-maximal at 0.31 µg/mL (EC50).

B15: FnC1t1p2_A5 (antibody, V domains shown)
VH: QVQLVQSGAEVKKPGASVKVSCKASGYTFTSYDINWVRQATGQGLEWMGWMNPNSGNTGYAQKFQGRVTMTRNTSISTAYMELSSLRSEDTAVYYCARATTDCSSTSCWSLDFWSGYYTGGREKIFDYWGQGTLVTVSS
VL: not shown
Consider B15, for which the binding result in assay [2] is reported as “binds”.

B16: MnC2t1p1_A3 (antibody, V domains shown)
VH: EVQLVESGGGLVQPGGSLRLSCAASGFTVSSNYMSWVRQAPGRGLEWVSVIYSGGSTFYADSVKGRFTISRDNSKNTLYLQMNSLRPEDTAVYYCATGARFGESPFDYWGQGTLVTVSS
VL: DIQMTQSPSSVSASVGDRVTITCRASQGISSWLAWYQQKPGKAPKLLIYAASSLQSGVPSRFSGSGSGTDFTLTISSLQPEDFATYYCQQANSFPGTFGQGTKVEIK
Turning to B16, the concentration giving a half-maximal response (EC50) in assay [3] was 0.05 µg/mL.

B17: MnC2t1p1_C5 (antibody, V domains shown)
VH: B16 VH with R43K, F58Y, P87A
VL: B16 VL
In the case of B17, the midpoint of the response in assay [3], the EC50, lay at 0.07 µg/mL.

B18: FnC1t2p1_D4 (antibody, V domains shown)
VH: QVQLVQSGSELKKPGASVKVSCKASGYTFLRFAMNWLRQAPGQGLEWMGWIDTNTGTPTYAQGFTGRFVFSLDTSVSTAYLQISSLKAEDTAVYYCARSLRGANLVPWGQGTLVTVSS
VL: DIQMTQSPSSLSASVGDRVTITCQASQDVSNYLNWYQQQPGKAPKLLIYDAFNLETGVPSRFSGSGSGTDFTFTISSLQPEDIATYYCQQYDNLPLTFGGGTKVEIK
In assay [2], B18 had an EC50 of 0.02 µg/mL.

B19: FnC1t2p1_G5 (antibody, V domains shown)
VH: B18 VH
VL: B18 VL
Consider B19, for which the EC50 in assay [1] is 0.02 µg/mL.

B20: HbnC3t1p1_C6 (antibody, V domains shown)
VH: QMQLVQSGPEVKKPGTSVKVSCKASGFTFTSSAVQWVRQARGQRLEWIGWIVVGSGNTNYAQKFQERVTITRDMSTSTAYMELSSLRSEDTAVYYCAAPHCSSTICYDGFDIWGQGTMVTVSS
VL: not shown
Turning to B20, the concentration for a half-maximal effect (EC50) in assay [1] was 0.06 µg/mL.

B21: MnC5t2p1_G1 (antibody, V domains shown)
VH: B20 VH with N59D, M74V, H100R, S103G, T104G, I105S
VL: B9 VL with Q39H, Y50C, V52A, D71G, V85A, H90Q
Regarding B21, the EC50 in assay [4] was 0.03 µg/mL.

B22: HbnC3t1p2_C6 (antibody, V domains shown)
VH: B20 VH with T30S, E66G, S77R, V93M, H100Y, I105R, G109A
VL: not shown
Consider B22, for which a half-maximal response in assay [1] (EC50) required 0.04 µg/mL.

B23: MnC2t2p1_C11 (antibody, V domains shown)
VH: QVQLVQSGAEVKKPGSSVKVSCKASGGTFSRYTIIWVRQAPGQGLEWMGRIIPILDIANYAQKFQGRVTITADKSTSTAYMELSSLRSEDTAVYYCAREGGLDYFGSRNSGWTYTWFDPWGQGTLVTVSS
VL: DIQMTQSPSSLSASVGDRVTITCRASQNISSYLNWYQQKPGKAPNLLIYAASSLQSGVPPRFSGSGSGTDFTLTISSLQPEDFATYYCQQSYSTLYSFGQGTKLEIK
As for B23, in assay [3], the 50% effective concentration (EC50) was found to be 0.02 µg/mL.

B24: MnC1t3p1_G9 (antibody, V domains shown)
VH: EVQLLESGGGLVQPGGSLRLSCAASGFTFRNYAMTWVRQAPGKGLEWVSGISDSGDRTYNADSVKGRFSISRDNSKNTLHLQMNSLRAEDTAVYYCALASGSYFGGANYWGQGTLVTVSS
VL: QAVVTQEPSLTVSPGGTVTLTCGSSTGPVTSDHYPYWFQQKPGQAPTTLIYDTNNKHSWTPARFSGSLLGGKAALTLSGAQPEDEAEYYCLLSYTGARVFGGGTKLTVL
For B24, in assay [3], the half-maximal effective concentration (EC50) worked out at 0.33 µg/mL.

For orientation: EC50 means the concentration at which the effect is half-maximal.

For the origin of these results see patent US20210371503A1 (UNIVERSITY OF COLOGNE, published 2021).
